Earlier results on one substance are cited in publication PMC7287924.

This series concerns the target CD47 (Homo sapiens) (UniProt Q08722).

Sequence of CD47 (Homo sapiens) (Q08722 19-323): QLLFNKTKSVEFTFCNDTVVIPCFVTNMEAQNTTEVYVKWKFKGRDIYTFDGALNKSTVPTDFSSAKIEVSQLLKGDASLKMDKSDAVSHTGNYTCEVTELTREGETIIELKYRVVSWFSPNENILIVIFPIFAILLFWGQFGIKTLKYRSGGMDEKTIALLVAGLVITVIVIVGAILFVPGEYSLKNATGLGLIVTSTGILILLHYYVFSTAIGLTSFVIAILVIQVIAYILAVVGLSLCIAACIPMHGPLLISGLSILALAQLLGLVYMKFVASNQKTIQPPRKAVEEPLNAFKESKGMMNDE
Sequence of TSP1 (P07996 19-1170): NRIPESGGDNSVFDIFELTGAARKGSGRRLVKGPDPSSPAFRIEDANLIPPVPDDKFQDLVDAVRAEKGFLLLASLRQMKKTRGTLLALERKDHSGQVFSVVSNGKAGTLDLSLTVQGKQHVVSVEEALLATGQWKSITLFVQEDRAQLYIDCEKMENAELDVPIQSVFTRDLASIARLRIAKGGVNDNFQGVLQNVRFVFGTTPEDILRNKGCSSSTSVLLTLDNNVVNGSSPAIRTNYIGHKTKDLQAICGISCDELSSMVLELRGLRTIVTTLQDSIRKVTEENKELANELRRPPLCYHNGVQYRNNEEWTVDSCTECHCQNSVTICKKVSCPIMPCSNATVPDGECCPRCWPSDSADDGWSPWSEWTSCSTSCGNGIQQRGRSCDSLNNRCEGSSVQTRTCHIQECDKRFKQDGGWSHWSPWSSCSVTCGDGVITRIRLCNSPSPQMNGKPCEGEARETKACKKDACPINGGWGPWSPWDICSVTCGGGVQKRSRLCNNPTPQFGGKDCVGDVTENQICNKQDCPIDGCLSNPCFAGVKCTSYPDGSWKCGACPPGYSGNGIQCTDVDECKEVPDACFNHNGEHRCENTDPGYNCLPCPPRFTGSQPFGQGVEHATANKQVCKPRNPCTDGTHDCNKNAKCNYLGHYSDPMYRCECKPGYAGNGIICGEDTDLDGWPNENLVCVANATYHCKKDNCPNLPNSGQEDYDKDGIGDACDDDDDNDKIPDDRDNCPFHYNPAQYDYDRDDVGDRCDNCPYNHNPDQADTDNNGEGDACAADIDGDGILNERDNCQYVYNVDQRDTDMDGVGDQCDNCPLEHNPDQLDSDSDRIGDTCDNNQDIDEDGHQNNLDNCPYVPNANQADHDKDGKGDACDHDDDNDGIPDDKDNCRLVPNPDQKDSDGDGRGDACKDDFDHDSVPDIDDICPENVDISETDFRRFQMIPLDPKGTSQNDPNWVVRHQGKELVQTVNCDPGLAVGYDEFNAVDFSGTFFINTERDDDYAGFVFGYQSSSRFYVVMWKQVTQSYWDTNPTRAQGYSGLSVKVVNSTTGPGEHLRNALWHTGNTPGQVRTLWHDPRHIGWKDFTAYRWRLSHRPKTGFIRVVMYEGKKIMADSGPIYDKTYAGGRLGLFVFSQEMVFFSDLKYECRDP

Consider TSP1 (from UniProt P07996), for which the Kd (in general, a measure of binding affinity in units of concentration) was 0.01 nM.
